# Data reported in paper PMC13370696, “Anemia‐associated mutations disrupt the CDIN1‐Codanin1 complex in inherited congenital dyserythropoietic anemia I (CDA‐I) disease” (The Febs Journal, 2026).
# B1: CDAN1-interacting nuclease 1 (CDIN1), full length, bacterial (natural protein, human, UniProt Q9Y2V0 1-281, looked up)
# chain: MILTKAQYDEIAQCLVSVPPTRQSLRKLKQRFPSQSQATLLSIFSQEYQKHIKRTHAKHHTSEAIESYYQRYLNGVVKNGAAPVLLDLANEVDYAPSLMARLILERFLQEHEETPPSKSIINSMLRDPSQIPDGVLANQVYQCIVNDCCYGPLVDCIKHAIGHEHEVLLRDLLLEKNLSFLDEDQLRAKGYDKTPDFILQVPVAVEGHIIHWIESKASFGDECSHHAYLHDQFWSYWNRFGPGLVIYWYGFIQELDCNRERGILLKACFPTNIVTLCHSIA
# notes: CDIN1 (C15orf41), human, full length, 281 amino acids; Eluted from the Im7 column by cleavage with His-tagged Ulp1; plasmid pl21 (TriAltus); The anticipated homodimer mass is printed as 67 kDa; Alone in solution it is mainly a homodimer; also called C15orf41
# B2: Codanin1 C-terminus (amino acids 1005-1227), labeled with Alexa Fluor 488 (domain or fragment, human, UniProt Q8IWY9 1005-1227, looked up)
# chain: AARGERRGCSRACEHHAPLPSHLISEIKDVLSLAVGPRDPDEGVSPEHLEQLLGQLGQTLRCRQFLCPPAEQHLAKCSVELASLLVADQIPILGPPAQYRLERGQARRLLHMLLSLWKEDFQGPVPLQLLLSPRNVGLLADTRPREWDLLLFLLRELVEKGLMGRMEIEACLGSLHQAQWPGDFAEELATLSNLFLAEPHLPEPQLRACELVQPNRGTVLAQS
# modifications: Alexa Fluor 488 covalently attached (carboxylic acid, 2,3,5,6-tetrafluorophenyl ester); site not stated; degree of labeling over 90%
# notes: Codanin-1 (CDAN1), human, amino acids 1005-1227, codon-optimized for bacterial expression; Same protein as m2, with the dye; also called fluorescently labeled Codanin1_(Cterm); Codanin1_(Cterm) Alexa Fluor 488
# B3: Codanin1 C-terminus (amino acids 1005-1227), bacterial (domain or fragment, human, UniProt Q8IWY9 1005-1227, looked up)
# chain: B2 chain
# notes: Codanin-1 (CDAN1), human, amino acids 1005-1227, codon-optimized for bacterial expression; Eluted from the Im7 column by cleavage with His-tagged Ulp1; plasmid pl21 (TriAltus); Anticipated mass is printed as 25 kDa; also called C-terminal part of Codanin1
# What was measured:
# [1] = biological target: B2; test: native gel or EMSA; 1.25 uM Alexa Fluor 488-labeled Codanin1_(Cterm) with 0-20 uM CDIN1 (twofold dilutions); 20 mM Tris/HCl, 150 mM NaCl, 5% glycerol, pH 8.0; 15 min at room temperature; native 10% PAGE, 0.5x TBE, 4 °C; conditions: both partners purified
# [2] = biological target: B3; test: AUC; sedimentation velocity, 20 °C, 50 000 rpm; 24 uM CDIN1, 24 uM Codanin1_(Cterm), or 1:1 complex at 12 uM each; 20 mM Tris/HCl, 150 mM NaCl, pH 8.0; conditions: both partners purified
# [3] = biological target: the molecule itself; test: SEC-MALS; CDIN1 (2 mg/mL), Codanin1_(Cterm) (2 mg/mL) or the 1:1 complex; Zenix SEC 300 column; 20 mM Tris/HCl, 150 mM NaCl, pH 8.0
# [4] = biological target: B1; test: MST; 75 nM Alexa Fluor 488-labeled Codanin1_(Cterm) with 0-5 uM CDIN1; 20 mM Tris/HCl, 150 mM NaCl, 5% glycerol, pH 8.0; 25 °C; Hill equation fit; apparent KD; conditions: both partners purified
# [5] = biological target: B1; test: ITC; Codanin1_(Cterm) (110 uM) titrated into CDIN1 (11 uM) in the cell; 15 °C; 20 mM Tris/HCl, 150 mM NaCl, 5% glycerol, pH 8.0; one-site binding model; conditions: both partners purified
binder,measurement,setting,value
B1,stoichiometry N,[1],1 CDIN1:Codanin1_(Cterm)
same,stoichiometry N,[2],1 CDIN1:Codanin1_(Cterm)
same,stoichiometry N,[3],2
B2,Kd,[4],53 ± 8 nM
B3,Kd,[5],20 ± 4 nM
